Laboratory results reported in patent publication US20250108090A1 (published 2025).

B1: mouse apoptosis inhibitor of macrophage (AIM), wild-type recombinant (other, UniProt Q9QWK4 22-352, looked up)
chain: ESPTKVQLVGGAHRCEGRVEVEHNGQWGTVCDDGWDRRDVAVVCRELNCGAVIQTPRGASYQPPASEQRVLIQGVDCNGTEDTLAQCELNYDVFDCSHEEDAGAQCENPDSDLLFIPEDVRLVDGPGHCQGRVEVLHQSQWSTVCKAGWNLQVSKVVCRQLGCGRALLTYGSCNKNTQGKGPIWMGKMSCSGQEANLRSCLLSRLENNCTHGEDTWMECEDPFELKLVGGDTPCSGRLEVLHKGSWGSVCDDNWGEKEDQVVCKQLGCGKSLHPSPKTRKIYGPGAGRIWLDDVNCSGKEQSLEFCRHRLWGYHDCTHKEDVEVICTDFDV
notes: mature; also called rAIM; mouse AIM
B11: human apoptosis inhibitor of macrophage (AIM) (other)
chain: SPSGVRLVGGLHRCEGRVEVEQKGQWGTVCDDGWDIKDVAVLCRELGCGAASGTPSGILYEPPAEKEQKVLIQSVSCTGTEDTLAQCEQEEVYDCSHDEDAGASCENPESSFSPVPEGVRLADGPGHCKGRVEVKHQNQWYTVCQTGWSLRAAKVVCRQLGCGRAVLTQKRCNKHAYGRKPIWLSQMSCSGREATLQDCPSGPWGKNTCNHDEDTWVECEDPFDLRLVGGDNLCSGRLEVLHKGVWGSVCDDNWGEKEDQVVCKQLGCGKSLSPSFRDRKCYGPGVGRIWLDNVRCSGEEQSLEQCQHRFWGFHDCTHQEDVAVICSG
notes: also called human AIM; human rAIM

Columns and labels:
[1] = target: mouse HSP70-A1 (low endotoxin; ADI-ESP-502-D, Enzo) (mouse, UniProt Q61696 1-641); test: ELISA, DAMP coated at 2 µg/mL, AIM in solution (FIG. 4)
Description: (§1) Therefore, AIM is considered to stably bind to DAMPs through two independent binding modes, namely, charge-based interaction and disulfide bond formation. These two binding sites are also used to bind AIM and IgM pentamer, as previously reported by the present inventors (Hiramoto et al., (2018) (the aforementioned)). […] Furthermore, IgM pentamer not bound to AIM inhibited the binding of AIM to DAMPs in a dose-dependent manner (FIG. 3G). That is, the binding to IgM pentamer functionally inactivates AIM in the binding to DAMPs. Furthermore, the present inventors evaluated under a fluorescence microscope whether the trap and uptake of PRDX1, HMGB1, and S100A9 by macrophages in vitro is inhibited in the presence of rAIM. […] It is known that somewhat larger molecules are more easily taken up by phagocytes (Aderem & Underhill, (1999). Mechanisms of Phagocytosis in Macrophages. Annu. Rev. Immunol. 17, 593-623.; Sarrias et al., (2005) (the aforementioned); Canton et al., Scavenger receptors in homeostasis and immunity. Nat. Rev. Immunol. 13, 621-634.). Therefore, induction of PRDX1 aggregation by AIM is further advantageous for PRDX1 phagocytosis.

mouse AIM 2CS mutant = target: T1, mouse AIM 2CS mutant (mouse, UniProt Q9QWK4 22-352); test: ELISA on coated DAMP (FIG. 3E)
T1 construct: Isolated cysteine of the SRCR2 domain replaced by serine; also called mouse 2CS mutant; 2CS AIM mutant
T1 sequence (looked up): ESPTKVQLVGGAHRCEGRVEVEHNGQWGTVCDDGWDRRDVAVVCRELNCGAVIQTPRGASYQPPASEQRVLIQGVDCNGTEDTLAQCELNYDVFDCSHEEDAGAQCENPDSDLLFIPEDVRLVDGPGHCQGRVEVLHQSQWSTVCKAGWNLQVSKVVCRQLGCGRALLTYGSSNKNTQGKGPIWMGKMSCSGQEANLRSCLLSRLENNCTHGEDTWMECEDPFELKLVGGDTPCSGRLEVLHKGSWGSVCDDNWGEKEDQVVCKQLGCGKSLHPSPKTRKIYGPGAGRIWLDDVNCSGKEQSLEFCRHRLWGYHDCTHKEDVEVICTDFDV
Method: 96-well ELISA plates were coated with DAMPs and control proteins resolved in Bicarbonate buffer (0.1 M NaHCO₃/Na₂CO₃, pH 9.6) at 2 μg/mL unless otherwise specified O/N at 4° C. After the plates were washed with tris buffered saline-tween (TBS-T) four times, they were coated with blocking buffer (1% Casein/TBS) for 2 h at RT. After a wash with TBS-T, AIM resolved in a dilution buffer (0.2% Casein/TBS/2 mM CaCl₂) at various concentrations was added to the well and plates were incubated for 1 h at RT. After 5-times wash with TBS-T/2 mM CaCl₂, biotinylated anti-mouse or human AIM antibody (clone #35 for mouse, clone 7 for human) was added to the wells and incubated for 1 h at RT. After 4-times wash with TBS-T/2 mM CaCl₂, Streptavidin-HRP diluted in 0.2% Casein/TBS/2 mM CaCl₂ was added to the wells and incubated for 1 h at RT. After 4-times wash with TBS-T/2 mM CaCl₂, TMB was added and incubated at RT for 10-25 min. The reaction was stopped by adding 1 N H₂SO₄ and thereby the absorbance at OD 450 nm was analyzed using a multiple plate reader.

[2] = target: B1; test: ELISA, DAMP coated at 2 µg/mL, AIM in solution (FIG. 3A)
Description: as §1

[3] = target: B11; test: as above
Description: as §1

[4] = target: B1; test: ELISA, DAMP coated at 2 µg/mL, AIM in solution (FIG. 4)
Description: as §1

[5] = target: B11; test: as above
Description: as §1

[6] = target: human HSP70 (Endotoxin Free; SPR-117A, StressMarq) (human, UniProt P0DMV8 1-641); test: as above
Description: as §1

Sequence of human HSP70 (Endotoxin Free; SPR-117A, StressMarq) (P0DMV8 whole entry): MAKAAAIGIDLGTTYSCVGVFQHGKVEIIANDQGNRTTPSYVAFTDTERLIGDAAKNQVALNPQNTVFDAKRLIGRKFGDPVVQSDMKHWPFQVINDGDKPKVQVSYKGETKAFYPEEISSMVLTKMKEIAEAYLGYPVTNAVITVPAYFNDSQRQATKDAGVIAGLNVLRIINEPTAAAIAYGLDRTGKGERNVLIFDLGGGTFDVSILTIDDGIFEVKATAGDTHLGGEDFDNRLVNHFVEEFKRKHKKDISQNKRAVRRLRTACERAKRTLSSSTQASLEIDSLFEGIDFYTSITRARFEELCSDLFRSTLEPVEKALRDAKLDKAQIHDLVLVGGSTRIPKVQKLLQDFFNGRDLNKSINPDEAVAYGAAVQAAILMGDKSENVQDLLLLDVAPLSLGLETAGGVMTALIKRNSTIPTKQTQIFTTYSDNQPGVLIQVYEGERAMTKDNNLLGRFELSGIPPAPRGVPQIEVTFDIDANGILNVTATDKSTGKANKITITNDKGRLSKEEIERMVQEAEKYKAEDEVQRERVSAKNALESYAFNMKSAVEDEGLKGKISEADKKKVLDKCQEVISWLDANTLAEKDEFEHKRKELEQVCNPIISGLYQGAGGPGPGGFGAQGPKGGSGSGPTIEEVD
Sequence of mouse HSP70-A1 (low endotoxin; ADI-ESP-502-D, Enzo) (Q61696 whole entry): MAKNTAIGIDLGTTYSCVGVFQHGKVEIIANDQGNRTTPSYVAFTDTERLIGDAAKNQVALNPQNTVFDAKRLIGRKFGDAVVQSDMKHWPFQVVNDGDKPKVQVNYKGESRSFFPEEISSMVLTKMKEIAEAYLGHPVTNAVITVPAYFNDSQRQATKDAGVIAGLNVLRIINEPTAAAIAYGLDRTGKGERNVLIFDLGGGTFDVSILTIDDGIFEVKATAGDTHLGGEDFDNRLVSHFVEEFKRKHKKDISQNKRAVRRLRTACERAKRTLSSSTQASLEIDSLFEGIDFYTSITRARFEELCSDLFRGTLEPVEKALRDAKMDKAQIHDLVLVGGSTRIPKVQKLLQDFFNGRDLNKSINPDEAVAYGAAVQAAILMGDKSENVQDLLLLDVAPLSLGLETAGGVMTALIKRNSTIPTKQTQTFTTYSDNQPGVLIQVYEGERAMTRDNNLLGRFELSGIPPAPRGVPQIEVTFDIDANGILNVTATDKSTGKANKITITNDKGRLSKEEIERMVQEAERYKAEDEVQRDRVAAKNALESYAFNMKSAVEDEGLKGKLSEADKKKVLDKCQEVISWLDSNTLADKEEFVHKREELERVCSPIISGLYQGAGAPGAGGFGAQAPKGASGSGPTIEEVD

B1: binds [1].

B2: human HMGB1 (1690-HMB-050, R&D Systems) (ligand, UniProt P09429 1-215, looked up)
chain: MGKGDPKKPRGKMSSYAFFVQTCREEHKKKHPDASVNFSEFSKKCSERWKTMSAKEKGKFEDMAKADKARYEREMKTYIPPKGETKKKFKDPNAPKRPPSAFFLFCSEYRPKIKGEHPGLSIGDVAKKLGEMWNNTAADDKQPYEKKAAKLKEKYEKDIAAYRAKGKPDAAKKGVVKAEKSKKKKEEEEDEEDEEDEEEEEDEEDEDEEEDDDDE
notes: also called high-mobility-group-box 1
B2: no binding (mouse AIM 2CS mutant); binds [2]; binds [3].

B3: mouse PRDX1 with a HA tag (generated in house) (ligand, UniProt P35700 1-199, looked up)
chain: MSSGNAKIGYPAPNFKATAVMPDGQFKDISLSEYKGKYVVFFFYPLDFTFVCPTEIIAFSDRADEFKKLNCQVIGASVDSHFCHLAWINTPKKQGGLGPMNIPLISDPKRTIAQDYGVLKADEGISFRGLFIIDDKGILRQITINDLPVGRSVDEIIRLVQAFQFTDKHGEVCPAGWKPGSDTIKPDVNKSKEYFSKQK
notes: also called peroxiredoxin 1; mouse PRDXs with a HA tag; not shown: HA tag
B3: no binding (mouse AIM 2CS mutant); binds [2].

B4: mouse PRDX2 with a HA tag (generated in house) (ligand, UniProt Q61171 1-198, looked up)
chain: MASGNAQIGKSAPDFTATAVVDGAFKEIKLSDYRGKYVVLFFYPLDFTFVCPTEIIAFSDHAEDFRKLGCEVLGVSVDSQFTHLAWINTPRKEGGLGPLNIPLLADVTKSLSQNYGVLKNDEGIAYRGLFIIDAKGVLRQITVNDLPVGRSVDEALRLVQAFQYTDEHGEVCPAGWKPGSDTIKPNVDDSKEYFSKHN
notes: also called PRDXs; not shown: HA tag
B4: binds [4].

B5: mouse PRDX6 with a HA tag (generated in house) (ligand, UniProt O08709 1-224, looked up)
chain: MPGGLLLGDEAPNFEANTTIGRIRFHDFLGDSWGILFSHPRDFTPVCTTELGRAAKLAPEFAKRNVKLIALSIDSVEDHLAWSKDINAYNGETPTEKLPFPIIDDKGRDLAILLGMLDPVEKDDNNMPVTARVVFIFGPDKKLKLSILYPATTGRNFDEILRVVDSLQLTGTKPVATPVDWKKGESVMVVPTLSEEEAKQCFPKGVFTKELPSGKKYLRYTPQP
notes: as for B4
B5: binds [4].

B6: mouse S100A8 (9877-S8-050, R&D Systems) (ligand, UniProt P27005 1-89, looked up)
chain: MPSELEKALSNLIDVYHNYSNIQGNHHALYKNDFKKMVTTECPQFVQNINIENLFRELDINSDNAINFEEFLAMVIKVGVASHKDSHKE
B6: binds [4].

B7: mouse S100A8/A9 (8916-S8-050, R&D Systems) (ligand)
chain 1: MPSELEKALSNLIDVYHNYSNIQGNHHALYKNDFKKMVTTECPQFVQNINIENLFRELDINSDNAINFEEFLAMVIKVGVASHKDSHKE
chain 2: MANKAPSQMERSITTIIDTFHQYSRKEGHPDTLSKKEFRQMVEAQLATFMKKEKRNEALINDIMEDLDTNQDNQLSFEECMMLMAKLIFACHEKLHENNPRGHGHSHGKGCGK
notes: Complex of S100A8 and S100A9 as bought; also called S100A8/9
B7: binds [4].

B8: mouse S100A9 (2065-S9-050, R&D Systems) (ligand, UniProt P31725 1-113, looked up)
chain: MANKAPSQMERSITTIIDTFHQYSRKEGHPDTLSKKEFRQMVEAQLATFMKKEKRNEALINDIMEDLDTNQDNQLSFEECMMLMAKLIFACHEKLHENNPRGHGHSHGKGCGK
B8: no binding (mouse AIM 2CS mutant); binds [2].

B9: human S100A8 (9876-58-050, R&D Systems) (ligand, UniProt P05109 1-93, looked up)
chain: MLTELEKALNSIIDVYHKYSLIKGNFHAVYRDDLKKLLETECPQYIRKKGADVWFKELDINTDGAVNFQEFLILVIKMGVAAHKKSHEESHKE
B9: binds [5].

B10: human S100A8/A9 (8226-S8-050, R&D Systems) (ligand)
chain 1: MLTELEKALNSIIDVYHKYSLIKGNFHAVYRDDLKKLLETECPQYIRKKGADVWFKELDINTDGAVNFQEFLILVIKMGVAAHKKSHEESHKE
chain 2: MTCKMSQLERNIETIINTFHQYSVKLGHPDTLNQGEFKELVRKDLQNFLKKENKNEKVIEHIMEDLDTNADKQLSFEEFIMLMARLTWASHEKMHEGDEGPGHHHKPGLGEGTP
notes: as for B7
B10: binds [5].

B11: binds [6].

B12: human S100A9 (9254-S9-050, R&D Systems) (ligand, UniProt P06702 1-114, looked up)
chain: MTCKMSQLERNIETIINTFHQYSVKLGHPDTLNQGEFKELVRKDLQNFLKKENKNEKVIEHIMEDLDTNADKQLSFEEFIMLMARLTWASHEKMHEGDEGPGHHHKPGLGEGTP
B12: binds [3].
